Values joined by “and” are separate entries in the source; they are usually repeats but may differ in a detail not shown here. Identical values can stand only once.
Tests used:
[1] = target: T1, human HVEM on cells (HEK293T cells expressing HVEM; Mesenchymal subtype GBM cells) (human, UniProt Q92956 39-283); assay: cell-based or functional assay
T1 sequence (looked up): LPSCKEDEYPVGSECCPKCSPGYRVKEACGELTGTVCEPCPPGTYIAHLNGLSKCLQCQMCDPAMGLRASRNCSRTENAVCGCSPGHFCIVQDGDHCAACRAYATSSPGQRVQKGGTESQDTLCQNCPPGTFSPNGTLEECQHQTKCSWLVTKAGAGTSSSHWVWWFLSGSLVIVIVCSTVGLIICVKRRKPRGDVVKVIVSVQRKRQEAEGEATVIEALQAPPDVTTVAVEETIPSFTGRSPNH

[2] = target: T2, human HVEM extracellular domain recombinant protein (Sino Biological Japan Inc. 10334-H08H) (human, UniProt Q92956 39-202); assay: SPR (BIAcore T200), antibody captured by anti-human IgG on CM5 chip, HVEM extracellular domain as analyte
T2 construct: extracellular domain; Bought protein
T2 sequence (looked up): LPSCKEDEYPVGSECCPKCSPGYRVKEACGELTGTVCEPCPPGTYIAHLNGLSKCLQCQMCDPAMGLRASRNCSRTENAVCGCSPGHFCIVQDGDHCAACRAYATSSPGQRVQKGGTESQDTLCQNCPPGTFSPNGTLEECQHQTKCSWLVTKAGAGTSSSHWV

[3] = target: T1, human HVEM on cells (HEK293T cells …); assay: cell ELISA on fixed HEK293T cells expressing HVEM, anti-His-HRP detection
[4] = target: T2, human HVEM extracellular domain …; assay: SPR (BIAcore T200), biotinylated VHH-3-Avitag on SA chip, HVEM extracellular domain as analyte

B1: humanized anti-human HVEM antibody (HVR80) conjugated with monomethyl auristatin E (MMAE) (other)
chain: EVQLVESGGGLVQPGGSLRLSCAASGSIGSIHRWDWYRQAPGKQREWVATLNSEGGPTYADSVEGRFTISRDNSKNTLYLQMNSLRPEDTAVYRCAARTVPFEYWGQGTLVTVSSGPPCPPCPAPEFLGGPSVFLFPPKPKDTLMISRTPEVTCVVVDVSQEDPEVQFNWYVDGVEVHNAKTKPREEQFNSTYRVVSVLTVLHQDWLNGKEYKCKVSNKGLPSSIEKTISKAKGQPREPQVYTLPPSQEEMTKNQVSLTCLVKGFYPSDIAVEWESNGQPENNYKTTPPVLDSDGSFFLYSRLTVDKSRWQEGNVFSCSVMHEALHNHYTQKSLSLSLGK
modifications: conjugated with monomethyl auristatin E (MMAE) using Glyclick ADC MMAE (Genovis AB); site not stated
For B1, the “IC50 of cell viability of HEK293T-HVEM cells, 3 days” value [1] was 70 ng/ml and 0.9 nM.

B2: humanized anti-human HVEM antibody (HVR80) conjugated with PNU (other)
chain: EVQLVESGGGLVQPGGSLRLSCAASGSIGSIHRWDWYRQAPGKQREWVATLNSEGGPTYADSVEGRFTISRDNSKNTLYLQMNSLRPEDTAVYRCAARTVPFEYWGQGTLVTVSSGPPCPPCPAPEFLGGPSVFLFPPKPKDTLMISRTPEVTCVVVDVSQEDPEVQFNWYVDGVEVHNAKTKPREEQFNSTYRVVSVLTVLHQDWLNGKEYKCKVSNKGLPSSIEKTISKAKGQPREPQVYTLPPSQEEMTKNQVSLTCLVKGFYPSDIAVEWESNGQPENNYKTTPPVLDSDGSFFLYSRLTVDKSRWQEGNVFSCSVMHEALHNHYTQKSLSLSLGK
modifications: conjugated with PNU using Glyclick ADC PNU (Genovis AB); site not stated
B2 was tested, and the “IC50 of cell viability of HEK293T-HVEM cells, 3 days” value [1] was 30 ng/ml and 0.4 nM.

B3: humanized anti-human HVEM antibody (HVR80) (Fc fusion)
chain: EVQLVESGGGLVQPGGSLRLSCAASGSIGSIHRWDWYRQAPGKQREWVATLNSEGGPTYADSVEGRFTISRDNSKNTLYLQMNSLRPEDTAVYRCAARTVPFEYWGQGTLVTVSSGPPCPPCPAPEFLGGPSVFLFPPKPKDTLMISRTPEVTCVVVDVSQEDPEVQFNWYVDGVEVHNAKTKPREEQFNSTYRVVSVLTVLHQDWLNGKEYKCKVSNKGLPSSIEKTISKAKGQPREPQVYTLPPSQEEMTKNQVSLTCLVKGFYPSDIAVEWESNGQPENNYKTTPPVLDSDGSFFLYSRLTVDKSRWQEGNVFSCSVMHEALHNHYTQKSLSLSLGK
notes: Printed molecular weight about 77,000
Work on B3 yielded a Kd [2] of 59 nM.

B4: alpaca anti-human HVEM antibody (VHH-3), 6×His-tagged (VHH)
VHH: QVQLVESGGGSVQPGGSLRLSCAASGSIGSIHRWDWYRLCPGKQREWVATLNSEGGPTYADSVEGRFTISRDNAKNMVYLQMNSLKPEDTAVYRCSARTVPFEYWGRGTQVTVSS
notes: also called 6×His-tagged VHH-3 antibody; not shown: 6×His tag
Work on B4 yielded an EC50 [3] of 1.94 nM.

B5: alpaca anti-human HVEM antibody (VHH-3) tagged C-terminally with biotinylated Avitag (VHH)
VHH: QVQLVESGGGSVQPGGSLRLSCAASGSIGSIHRWDWYRLCPGKQREWVATLNSEGGPTYADSVEGRFTISRDNAKNMVYLQMNSLKPEDTAVYRCSARTVPFEYWGRGTQVTVSS
modifications: biotinylated Avitag at the C-terminus
notes: not shown: C-terminal Avitag (biotinylated)
Work on B5 yielded a Kd [4] of 19 nM.
